{
  "source": "the supplement of paper PMC10567573",
  "parents": {"B1": {"name": "DCAF4 (parent)", "chain": "DSHILLCLMGLAETPGCATLLPAS"}},
  "data": [
    {"variants_of": "B1", "experiment": "protein stability index of a GFP-peptide fusion (GPS, HEK-293T) (PSI 1-6); higher = more stable", "settings": "c terminus: a fixed tail appended", "values": [
      {"variant": "DSHILLCLMGLAETPGCATLLAAS", "note": "[P22A]", "protein stability index": 3.01},
      {"variant": "DSHILLCLMGLAETPGCATLLHAS", "note": "[P22H]", "protein stability index": 3.65},
      {"variant": "DSHILLCLMGLAETPGCATLLRAS", "note": "[P22R]", "protein stability index": 3.03},
      {"variant": "DSHILLCLMGLAETPGCATLLKAS", "note": "[P22K]", "protein stability index": 3.2},
      {"variant": "DSHILLCLMGLAETPGCATLLGAS", "note": "[P22G]", "protein stability index": 2.29},
      {"variant": "DSHILLCLMGLAETPGCAKLLPAS", "note": "[T19K]", "protein stability index": 3.24},
      {"variant": "DSHILLCLMGLAETPGCAPLLPAS", "note": "[T19P]", "protein stability index": 2.5},
      {"variant": "DSHILLCLMGLAETPGCAWLLPAS", "note": "[T19W]", "protein stability index": 2.05},
      {"variant": "DSHILLCLMGLAETPGCARLLPAS", "note": "[T19R]", "protein stability index": 1.64},
      {"variant": "DSHILLCLMGLAETPGCAFLLPAS", "note": "[T19F]", "protein stability index": 3.47},
      {"variant": "DSHILLCLMGLAETPGCAYLLPAS", "note": "[T19Y]", "protein stability index": 3.13},
      {"variant": "DSHILLCLMGLAETPGCAQLLPAS", "note": "[T19Q]", "protein stability index": 1.43},
      {"variant": "DSHILLCLMGLAETPGCANLLPAS", "note": "[T19N]", "protein stability index": 2.42},
      {"variant": "DSHILLCLMGLAETPGCADLLPAS", "note": "[T19D]", "protein stability index": 3.26},
      {"variant": "DSHILLCLMGLAETPGCAMLLPAS", "note": "[T19M]", "protein stability index": 3.1},
      {"variant": "DSHILLCLMGLAETPGCAALLPAS", "note": "[T19A]", "protein stability index": 2.22},
      {"variant": "DSHILLCLMGLAETPGCASLLPAS", "note": "[T19S]", "protein stability index": 2.67},
      {"variant": "DSHILLCLMGLAETPGCAILLPAS", "note": "[T19I]", "protein stability index": 2.58},
      {"variant": "DSHILLCLMGLAETPGCALLLPAS", "note": "[T19L]", "protein stability index": 2.15},
      {"variant": "DSHILLCLMGLAETPGCAELLPAS", "note": "[T19E]", "protein stability index": 3.24},
      {"variant": "DSHILLCLMGLAETPGCAGLLPAS", "note": "[T19G]", "protein stability index": 2.93},
      {"variant": "DSHILLCLMGLAETCGCATLLPAS", "note": "[P15C]", "protein stability index": 2.61},
      {"variant": "DSHILLCLMGLAETWGCATLLPAS", "note": "[P15W]", "protein stability index": 2.46},
      {"variant": "DSHILLCLMGLAETKGCATLLPAS", "note": "[P15K]", "protein stability index": 1.78},
      {"variant": "DSHILLCLMGLAETRGCATLLPAS", "note": "[P15R]", "protein stability index": 2.66},
      {"variant": "DSHILLCLMGLAETVGCATLLPAS", "note": "[P15V]", "protein stability index": 2.59},
      {"variant": "DSHILLCLMGLAETSGCATLLPAS", "note": "[P15S]", "protein stability index": 2.52},
      {"variant": "DSHILLCLMGLAETGGCATLLPAS", "note": "[P15G]", "protein stability index": 2.54},
      {"variant": "DSHILLCLMGLAETLGCATLLPAS", "note": "[P15L]", "protein stability index": 3.33},
      {"variant": "DSHILLCLMGLAETNGCATLLPAS", "note": "[P15N]", "protein stability index": 1.35},
      {"variant": "DSHILLCLMGLAETIGCATLLPAS", "note": "[P15I]", "protein stability index": 2.35},
      {"variant": "DSHILLCLMGLAETDGCATLLPAS", "note": "[P15D]", "protein stability index": 2.56},
      {"variant": "DSHILLCLMGLAETYGCATLLPAS", "note": "[P15Y]", "protein stability index": 2.44},
      {"variant": "DSHILLCLMGLAETEGCATLLPAS", "note": "[P15E]", "protein stability index": 2.06},
      {"variant": "DSHILLCLMGLAETAGCATLLPAS", "note": "[P15A]", "protein stability index": 3.15},
      {"variant": "DSHILLCLMGLAETTGCATLLPAS", "note": "[P15T]", "protein stability index": 2.3},
      {"variant": "DSHILLCLMGLAETMGCATLLPAS", "note": "[P15M]", "protein stability index": 2.44},
      {"variant": "DSHILLCLMGLAETFGCATLLPAS", "note": "[P15F]", "protein stability index": 3.63},
      {"variant": "DSHILLCLMGLAETPGCATLLPMS", "note": "[A23M]", "protein stability index": 1.66},
      {"variant": "DSHILLCLMGLAETPGCATLLPYS", "note": "[A23Y]", "protein stability index": 1.75},
      {"variant": "DSHILLCLMGLAETPGCATLLPVS", "note": "[A23V]", "protein stability index": 1.49},
      {"variant": "DSHILLCLMGLAETPGCATLLPNS", "note": "[A23N]", "protein stability index": 3.13},
      {"variant": "DSHILLCLMGLAETPGCATLLPHS", "note": "[A23H]", "protein stability index": 1.66},
      {"variant": "DSHILLCLMGLAETPGCATLLPPS", "note": "[A23P]", "protein stability index": 1.79},
      {"variant": "DSHILLCLMGLAETPGCATLLPRS", "note": "[A23R]", "protein stability index": 3.3},
      {"variant": "DSHILLCLMGLAETPGCATLLPGS", "note": "[A23G]", "protein stability index": 2.37},
      {"variant": "DSHILLCLMGLAETPGCATLLPFS", "note": "[A23F]", "protein stability index": 3.27},
      {"variant": "DSHILLCLMGLAETPGCATLLPDS", "note": "[A23D]", "protein stability index": 2.79},
      {"variant": "DSHILLCLMGLAETPGCATLLPQS", "note": "[A23Q]", "protein stability index": 2.72},
      {"variant": "DSHILLCLMGLAETPGCATLLPLS", "note": "[A23L]", "protein stability index": 1.69},
      {"variant": "DSHILLCLMGLAETPGCATLLPIS", "note": "[A23I]", "protein stability index": 3.11},
      {"variant": "DSHILLCLMGLAETPGCATLLPES", "note": "[A23E]", "protein stability index": 3.69},
      {"variant": "DSHILLCLMGLAETPGCATLLPTS", "note": "[A23T]", "protein stability index": 2.42},
      {"variant": "DSHILLCLMGLAETPGCATLLPCS", "note": "[A23C]", "protein stability index": 1.89},
      {"variant": "DSHILLCLMGLAEYPGCATLLPAS", "note": "[T14Y]", "protein stability index": 3.79},
      {"variant": "DSHILLCLMGLAEVPGCATLLPAS", "note": "[T14V]", "protein stability index": 2.66},
      {"variant": "DSHILLCLMGLAEWPGCATLLPAS", "note": "[T14W]", "protein stability index": 2.89},
      {"variant": "DSHILLCLMGLAEPPGCATLLPAS", "note": "[T14P]", "protein stability index": 2.53},
      {"variant": "DSHILLCLMGLAESPGCATLLPAS", "note": "[T14S]", "protein stability index": 2.47},
      {"variant": "DSHILLCLMGLAERPGCATLLPAS", "note": "[T14R]", "protein stability index": 2.05},
      {"variant": "DSHILLCLMGLAETPGPATLLPAS", "note": "[C17P]", "protein stability index": 3},
      {"variant": "DSHILLCLMGLAETPGDATLLPAS", "note": "[C17D]", "protein stability index": 1.47},
      {"variant": "DSHILLCLMGLAETPGYATLLPAS", "note": "[C17Y]", "protein stability index": 2.55},
      {"variant": "DSHILLCLMGLAETPGRATLLPAS", "note": "[C17R]", "protein stability index": 1.78},
      {"variant": "DSHILLCLMGLAETPGAATLLPAS", "note": "[C17A]", "protein stability index": 2.98},
      {"variant": "DSHILLCLMGLAETPGWATLLPAS", "note": "[C17W]", "protein stability index": 2.44},
      {"variant": "DSHILLCLMGLAETPGLATLLPAS", "note": "[C17L]", "protein stability index": 2.23},
      {"variant": "DSHILLCLMGLAETPGMATLLPAS", "note": "[C17M]", "protein stability index": 2.38},
      {"variant": "DSHILLCLMGLAETPGEATLLPAS", "note": "[C17E]", "protein stability index": 2.63},
      {"variant": "DSHILLCLMGLAETPGKATLLPAS", "note": "[C17K]", "protein stability index": 1.83},
      {"variant": "DSHILLCLMGLAETPGFATLLPAS", "note": "[C17F]", "protein stability index": 2.34},
      {"variant": "DSHILLCLMGLAETPGHATLLPAS", "note": "[C17H]", "protein stability index": 2.58},
      {"variant": "DSHILLCLMGLAETPGSATLLPAS", "note": "[C17S]", "protein stability index": 2.81},
      {"variant": "DSHILLCLMGLAETPGIATLLPAS", "note": "[C17I]", "protein stability index": 2.04},
      {"variant": "DSHILLCLMGLAETPGGATLLPAS", "note": "[C17G]", "protein stability index": 3.08},
      {"variant": "DSHILLCLMGLAETPGTATLLPAS", "note": "[C17T]", "protein stability index": 3.4},
      {"variant": "DSHILLCLMGLAETPGNATLLPAS", "note": "[C17N]", "protein stability index": 1.99},
      {"variant": "DSHILLCLMGLAETPYCATLLPAS", "note": "[G16Y]", "protein stability index": 2.65},
      {"variant": "DSHILLCLMGLAETPTCATLLPAS", "note": "[G16T]", "protein stability index": 1.99},
      {"variant": "DSHILLCLMGLAETPPCATLLPAS", "note": "[G16P]", "protein stability index": 4.04},
      {"variant": "DSHILLCLMGLAETPRCATLLPAS", "note": "[G16R]", "protein stability index": 2.39},
      {"variant": "DSHILLCLMGLAETPQCATLLPAS", "note": "[G16Q]", "protein stability index": 2.81},
      {"variant": "DSHILLCLMGLAETPACATLLPAS", "note": "[G16A]", "protein stability index": 3.16},
      {"variant": "DSHILLCLMGLAETPICATLLPAS", "note": "[G16I]", "protein stability index": 2.9},
      {"variant": "DSHILLCLMGLAETPMCATLLPAS", "note": "[G16M]", "protein stability index": 2.6},
      {"variant": "DSHILLCLMGLAETPDCATLLPAS", "note": "[G16D]", "protein stability index": 3.45},
      {"variant": "DSHILLCLMGLAETPLCATLLPAS", "note": "[G16L]", "protein stability index": 2.05},
      {"variant": "DSHILLCLMGLAETPKCATLLPAS", "note": "[G16K]", "protein stability index": 1.38},
      {"variant": "DSHILLCLMGLAETPCCATLLPAS", "note": "[G16C]", "protein stability index": 3.37},
      {"variant": "DSHILLCLMGLAETPFCATLLPAS", "note": "[G16F]", "protein stability index": 2.85},
      {"variant": "DSHILLCLMGLAETPHCATLLPAS", "note": "[G16H]", "protein stability index": 2.37},
      {"variant": "DSHILLCLMGLAETPECATLLPAS", "note": "[G16E]", "protein stability index": 3.54},
      {"variant": "DSHILLCLMGLAETPVCATLLPAS", "note": "[G16V]", "protein stability index": 2.76},
      {"variant": "DSHILLCLMGLAETPNCATLLPAS", "note": "[G16N]", "protein stability index": 2.77}
    ]}
  ]
}
